Test [1] has as its target Feline_OSMR_hlgG1_Fc (feline). Description: SPR Biacore. A general note: SPR reads the build-up and loss of mass on a sensor chip optically.
The target in test [2] is Canine_OSMR_hlgG1_Fc (canine). Description: SPR Biacore.
Chain of Canine_OSMR_hlgG1_Fc (canine) (chain, as listed by the source limits assumed, form in doubt): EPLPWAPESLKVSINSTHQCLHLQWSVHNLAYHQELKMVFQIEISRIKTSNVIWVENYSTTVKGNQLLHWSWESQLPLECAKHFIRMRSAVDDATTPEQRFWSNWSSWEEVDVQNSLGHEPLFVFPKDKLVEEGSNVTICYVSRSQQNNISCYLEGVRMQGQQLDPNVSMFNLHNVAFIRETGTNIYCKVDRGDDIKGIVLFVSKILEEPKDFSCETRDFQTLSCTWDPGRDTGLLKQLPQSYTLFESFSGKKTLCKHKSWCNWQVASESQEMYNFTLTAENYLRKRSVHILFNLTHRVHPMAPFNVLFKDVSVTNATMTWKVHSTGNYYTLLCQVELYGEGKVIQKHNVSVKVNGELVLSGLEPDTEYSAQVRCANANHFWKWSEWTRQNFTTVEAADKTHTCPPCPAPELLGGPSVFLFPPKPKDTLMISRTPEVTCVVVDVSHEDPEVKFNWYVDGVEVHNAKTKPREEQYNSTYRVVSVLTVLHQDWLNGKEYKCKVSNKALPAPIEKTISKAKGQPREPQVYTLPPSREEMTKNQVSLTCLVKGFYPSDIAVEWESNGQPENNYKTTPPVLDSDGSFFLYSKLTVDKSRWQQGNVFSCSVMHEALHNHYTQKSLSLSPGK

Chain of Feline_OSMR_hlgG1_Fc (feline) (chain, as listed by the source limits assumed, form in doubt): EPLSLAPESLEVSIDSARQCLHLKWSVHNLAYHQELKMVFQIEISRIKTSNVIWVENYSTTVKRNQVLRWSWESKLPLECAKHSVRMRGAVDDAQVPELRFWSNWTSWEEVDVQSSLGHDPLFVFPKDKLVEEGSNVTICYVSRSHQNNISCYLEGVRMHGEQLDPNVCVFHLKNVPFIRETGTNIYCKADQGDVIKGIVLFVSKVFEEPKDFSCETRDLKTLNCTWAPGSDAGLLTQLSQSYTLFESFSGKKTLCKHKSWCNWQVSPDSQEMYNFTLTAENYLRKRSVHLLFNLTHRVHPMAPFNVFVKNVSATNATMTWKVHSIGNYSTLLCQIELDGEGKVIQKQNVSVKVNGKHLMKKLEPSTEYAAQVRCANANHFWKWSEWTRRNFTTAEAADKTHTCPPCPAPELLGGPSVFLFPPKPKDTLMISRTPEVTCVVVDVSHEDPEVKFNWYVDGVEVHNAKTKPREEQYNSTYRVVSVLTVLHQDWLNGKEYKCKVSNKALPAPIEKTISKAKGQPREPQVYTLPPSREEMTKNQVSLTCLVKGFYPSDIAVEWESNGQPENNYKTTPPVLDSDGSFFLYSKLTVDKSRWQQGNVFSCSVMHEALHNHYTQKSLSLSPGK

B1: FEL_10F07_2.2 (antibody)
heavy: DVQLVESGGDLVKPGGSLRLTCVASGFTFSSYAMSWVRQAPGKGLQWVAYISSGGDYFYYADTVKGRFTISRDDAKNTLYLQMSSLKTEDTATYYCTGDPITGTFAYWGQGTLVTVSSASTTAPSVFPLAPSCGTTSGATVALACLVLGYFPEPVTVSWNSGALTSGVHTFPAVLQASGLYSLSSMVTVPSSRWLSDTFTCNVAHPPSNTKVDKTVRKTDHPPGPKPCDCPKCPPPEAAGAPSIFIFPPKPKDTLSISRTPEVTCLVVDLGPDDSDVQITWFVDNTQVYTAKTSPREEQFNSTYRVVSVLPILHQDWLKGKEFKCKVNSKSLPSPIERTISKAKGQPHEPQVYVLPPAQEELSRNKVSVTCLIKSFHPPDIAVEWEITGQPEPENNYRTTPPQLDSDGTYFVYSKLSVDRSHWQRGNTYTCSVSHEALHSHHTQKSLTQSPGK
light: DITMTQSPGSLAGSPGQQVTMNCRASQDITNYLNWYQQKPGQHPKLLIYYTSTLHSGVPDRFSGSGSGTDFTLTISNLQAEDVASYYCQQGHMLPWTFGQGTRSDAQPSVFLFQPSLDELHTGSASIVCILNDFYPKEVNVKWKVDGVVQNKGIQESTTEQNSKDSTYSLSSTLTMSSTEYQSHEKFSCEVTHKSLASTLVKSFQRSECQRE
As a reminder, the Kd is a measure of binding affinity in units of concentration. One may read the koff as a measure of how fast the partners let go of each other. A lower koff goes with a long-lived complex. As usually defined, the kon is the second-order rate constant of association. The low end stands for slower complex formation, the high end for faster complex formation. In test [1], B1 yielded a Kd of 1.21 nM, a koff of 0.000457 s⁻¹ and a kon of 376000 M⁻¹ s⁻¹. In test [2], the Kd is 4.99 nM, the koff came to 0.000903 s⁻¹ and the kon was 181000 M⁻¹ s⁻¹.

B2: CAN_19F07_1.1 (antibody)
heavy: EVQLVESGGDLVKPGGSLRLSCVASGFTFSDYYMAWVRQAPGKGLQWVANINYDGSSTYYLDSLKSRFTISRDNAKNTLYLQMNSLRAEDTAMYYCVRGLTWDFDVWGQGTLVTVSSASTTAPSVFPLAPSCGSTSGSTVALACLVSGYFPEPVTVSWNSGSLTSGVHTFPSVLQSSGLYSLSSMVTVPSSRWPSETFTCNVAHPASKTKVDKPVPKRENGRVPRPPDCPKCPAPEMLGGPSVFIFPPKPKDTLLIARTPEVTCVVVDLDPEDPEVQISWFVDGKQMQTAKTQPREEQFNGTYRVVSVLPIGHQDWLKGKQFTCKVNNKALPSPIERTISKARGQAHQPSVYVLPPSREELSKNTVSLTCLIKDFFPPDIDVEWQSNGQQEPESKYRTTPPQLDEDGSYFLYSKLSVDKSRWQRGDTFICAVMHEALHNHYTQESLSHSPGK
light: EIVMTQSPASLSLSQEEKVTITCKASQDVDTAVAWYQQKPGQAPKLLIYLASTRHTGVPSRFSGSGSGTDFSFTISSLEPEDVAVYYCQQYSRFPLTFGQGTRNDAQPAVYLFQPSPDQLHTGSASVVCLLNSFYPKDINVKWKVDGVIQDTGIQESVTEQDKDSTYSLSSTLTMSSTEYLSHELYSCEITHKSLPSTLIKSFQRSEC
In test [1], B2 had an equilibrium dissociation constant (Kd) of 0.32 nM, a koff of 3.55e-05 s⁻¹ and a kon of 111000 M⁻¹ s⁻¹. In test [2], the Kd was 9.13 nM, the koff was 0.000334 s⁻¹ and the on-rate (kon) turned out to be 36600 M⁻¹ s⁻¹.

B3: CAN_19F07_2.1 (antibody)
heavy: EVQLVESGGDLVKPAGSLTLSCLASGFTFSDYYMAWVRQTPEKGLQWVANINYDGSSTYYLDSLKSRFTISRDNAKNTLYLQMNSLRDEDTAVYYCARGLTWDFDVWGQGTLVTVSSASTTAPSVFPLAPSCGSTSGSTVALACLVSGYFPEPVTVSWNSGSLTSGVHTFPSVLQSSGLYSLSSMVTVPSSRWPSETFTCNVAHPASKTKVDKPVPKRENGRVPRPPDCPKCPAPEMLGGPSVFIFPPKPKDTLLIARTPEVTCVVVDLDPEDPEVQISWFVDGKQMQTAKTQPREEQFNGTYRVVSVLPIGHQDWLKGKQFTCKVNNKALPSPIERTISKARGQAHQPSVYVLPPSREELSKNTVSLTCLIKDFFPPDIDVEWQSNGQQEPESKYRTTPPQLDEDGSYFLYSKLSVDKSRWQRGDTFICAVMHEALHNHYTQESLSHSPGK
light: EIVMTQSPASLSLSQEEKVTITCKASQDVDTAVAWYQQKPGQAPKLLIYLASTRHTGVPSRFSGSGSGTDFSFTISSLEPEDVAVYYCQQYSRFPLTFGQGTRNDAQPAVYLFQPSPDQLHTGSASVVCLLNSFYPKDINVKWKVDGVIQDTGIQESVTEQDKDSTYSLSSTLTMSSTEYLSHELYSCEITHKSLPSTLIKSFQRSEC
In test [1], B3 returned an equilibrium dissociation constant (Kd) of 0.198 nM, a koff of 1.12e-05 s⁻¹ and a kon of 56700 M⁻¹ s⁻¹. In test [2], the Kd was found to be 8.3 nM, the koff worked out at 0.00022 s⁻¹ and the kon was found to be 26400 M⁻¹ s⁻¹.

B4: CAN_19F07_2.2 (antibody)
heavy: EVQLVESGGDLVKPAGSLTLSCLASGFTFSDYYMAWVRQTPEKGLQWVANINYDGSSTYYLDSLKSRFTISRDNAKNTLYLQMNSLRDEDTAVYYCARGLTWDFDVWGQGTLVTVSSASTTAPSVFPLAPSCGSTSGSTVALACLVSGYFPEPVTVSWNSGSLTSGVHTFPSVLQSSGLYSLSSMVTVPSSRWPSETFTCNVAHPASKTKVDKPVPKRENGRVPRPPDCPKCPAPEMLGGPSVFIFPPKPKDTLLIARTPEVTCVVVDLDPEDPEVQISWFVDGKQMQTAKTQPREEQFNGTYRVVSVLPIGHQDWLKGKQFTCKVNNKALPSPIERTISKARGQAHQPSVYVLPPSREELSKNTVSLTCLIKDFFPPDIDVEWQSNGQQEPESKYRTTPPQLDEDGSYFLYSKLSVDKSRWQRGDTFICAVMHEALHNHYTQESLSHSPGK
light: DIVMTQTPLSLSVSPGETASISCKASQDVDTAVAWFRQKPGQSPQRLIYLASTRHTGVPDRFSGSGSGTDFTLRISRVEADDTGVYYCQQYSRFPLTFGQGTRNDAQPAVYLFQPSPDQLHTGSASVVCLLNSFYPKDINVKWKVDGVIQDTGIQESVTEQDKDSTYSLSSTLTMSSTEYLSHELYSCEITHKSLPSTLIKSFQRSEC
On to B4, for which, in test [1], the Kd was determined as 24 nM, the off-rate (koff) is 0.00113 s⁻¹ and the kon turned out to be 47000 M⁻¹ s⁻¹.

B5: Canine_OSM (ligand)
chain: SCSDKYPELLGQLQKQADFMQHTNTLLDLYIRSQGLDKNGLKEHCRERPGAFPSKDALQRLSRRVFLRTLDTTLGQVLLRLAALEQDIPKAQDLEMLSGVKLNIRGFKNNIHCMAQLLPGSSETTEPTPTSPGASPSPTPTLDTFQRRLEGCRFLHGYHRFMRSVGQVFREWGKSLSRSRR
With B5, in test [1], the dissociation constant (Kd) was 41.1 nM, the koff is 0.00423 s⁻¹ and the on-rate constant (kon) came to 103000 M⁻¹ s⁻¹. For the same molecule, in test [2], the Kd worked out at 43.6 nM, the koff came out at 0.003 s⁻¹ and the kon was determined as 68700 M⁻¹ s⁻¹.

B6: FEL_19F07_2.1 (antibody)
heavy: DVQLVESGGNLVKPGGSLRLTCVASGFTFSDYYMAWVRQAPGKGLQWVANINYDGSSTYYLDSLKSRFTISRDNAKNTLYLQMNSLKTEDTATYYCARGLTWDFDVWGQGTLVTVSSASTTAPSVFPLAPSCGTTSGATVALACLVLGYFPEPVTVSWNSGALTSGVHTFPAVLQASGLYSLSSMVTVPSSRWLSDTFTCNVAHPPSNTKVDKTVRKTDHPPGPKPCDCPKCPPPEAAGAPSIFIFPPKPKDTLSISRTPEVTCLVVDLGPDDSDVQITWFVDNTQVYTAKTSPREEQFNSTYRVVSVLPILHQDWLKGKEFKCKVNSKSLPSPIERTISKAKGQPHEPQVYVLPPAQEELSRNKVSVTCLIKSFHPPDIAVEWEITGQPEPENNYRTTPPQLDSDGTYFVYSKLSVDRSHWQRGNTYTCSVSHEALHSHHTQKSLTQSPGK
light: EIQMTQSPSSLSASPGDRVTITCKASQDVDTAVAWYQQKPGKVPKLLIYLASTRHTGVPSRFSGSGSGTDFTLTISSLEPEDAATYYCQQYSRFPLTFGQGTRSDAQPSVFLFQPSLDELHTGSASIVCILNDFYPKEVNVKWKVDGVVQNKGIQESTTEQNSKDSTYSLSSTLTMSSTEYQSHEKFSCEVTHKSLASTLVKSFQRSECQRE
In test [1], B6 returned a Kd of 0.108 nM, a koff of 4.07e-07 s⁻¹ and a kon of 3790 M⁻¹ s⁻¹.

The values are drawn from patent publication US20220177594A1.
